Experimental data reported in the supplement of paper PMC7125110.
± gives the standard error. This sample holds only a part of the variants without activity.

B1: glmS ribozyme (parent)
chain: AUAAAAGCGCCAGAACUACAGAAAUGUAGUUGACGAGGAGGAGGUUUAUCGAAUUUUCGGCGGAUGCCUCCAAA

Assays:
Details in all cases: with glucosamine-6-phosphate
glucosamine-6-phosphate [1] = variants of: B1; test: self-cleavage kobs at 40 uM GlcN6P; higher = faster cleavage; RNA array
Outline: (§1)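 Barcoded glmS ribozyme variants on sequenced MiSeq chips were transcribed in situ by E. coli RNA polymerase and tracked through a hybridised Cy3 probe at 37 °C. Glucosamine-6-phosphate (40 μM to 10 mM) in HEPES/KCl/Mg(OAc)2 buffer was flowed in, and tiles were imaged over ~14 h. Signals were normalised to baseline and to non-cleaving reference variants; per-tile medians were fit to one- or two-exponential decays to give kobs. kcat and KM came from weighted Michaelis–Menten fits across concentrations.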

glucosamine-6-phosphate [2] = variants of: B1; test: self-cleavage kobs at 640 uM GlcN6P; higher = faster cleavage; RNA array
Outline: as §1

glucosamine-6-phosphate [3] = variants of: B1; test: self-cleavage kobs at 2500 uM GlcN6P; higher = faster cleavage; RNA array
Outline: as §1

glucosamine-6-phosphate [4] = variants of: B1; test: self-cleavage kobs at 10000 uM GlcN6P; higher = faster cleavage; RNA array
Outline: as §1

glucosamine-6-phosphate [5] = variants of: B1; test: self-cleavage kobs at 160 uM GlcN6P; higher = faster cleavage; RNA array
Outline: as §1

Row | Variant | self-cleavage kobs at 40 uM GlcN6P (glucosamine-6-phosphate [1]) [s⁻¹] | self-cleavage kobs at 640 uM GlcN6P (glucosamine-6-phosphate [2]) [s⁻¹] | self-cleavage kobs at 2500 uM GlcN6P (glucosamine-6-phosphate [3]) [s⁻¹] | self-cleavage kobs at 10000 uM GlcN6P (glucosamine-6-phosphate [4]) [s⁻¹] | self-cleavage kobs at 160 uM GlcN6P (glucosamine-6-phosphate [5]) [s⁻¹]
1 | AUAAAAUCGCCAGAACUACAGAAAUGUAGUUGACGGGGAGGAGGUUUAUCGAAUUUUCGGCGGAUGCCUCCAAA [G7U A36G] | < 1e-05 | < 1e-05 | < 1e-05 | < 1e-05 | –
2 | AUAAAAUCGCCAGAACUACAGAAAUGUAGUUGACGAGGAGGAGGUUUAUCGAAUUUUCGGCUGAUGCCUCCAAA [G7U G62U] | < 1e-05 | < 1e-05 | < 1e-05 | – | < 1e-05
3 | AUAAAAUUGCCAGAACUACAGAAAUGUAGUUGACGAGGAGGAGGUUUAUCGAAUUUUCGGCGGAUGCCUCCAAA [G7U C8U] | < 1e-05 | < 1e-05 | < 1e-05 | < 1e-05 | < 1e-05
4 | AUAAAAUCGCCAGAACUACAGAAAUGUAGUUGACCAGGAGGAGGUUUAUCGAAUGUUCGGCGGCUGCCUCCAAA [G7U G35C U55G A64C] | < 1e-05 | – | – | – | –
5 | AUAAAAUCGCCAGAACUACAGAAAUGUAGUUGGCGAGGAGGAGGUUUAUCGAAUUUUCGGCGGAUGCCUCCAAA [G7U A33G] | < 1e-05 | < 1e-05 | < 1e-05 | – | < 1e-05
6 | AUAAAAUCGCCAGAACUACAGAAAUGUAGUUGACGAGGAGGAGGUCUAUCGAAUUUUCGGCGGAUGCCUGCAAA [G7U U46C C70G] | < 1e-05 | – | < 1e-05 | < 1e-05 | –
7 | AUAAAAUCGCCAGGACUACAGAAAUGUAGUUCACGAGGUGGAGGUUUAUCGAAUUUUCGGCGGAUGCCUCCAAA [G7U A14G G32C A39U] | < 1e-05 | – | – | – | –
8 | AUAAAAUCGGCAGAUCUACAGAAAUGUAGUUGAAGAGGAUGAGGUUUAUCGAAUUUUGGCCGAAUGCCUCCAAA [G7U C10G A15U C34A G40U C58G G60C G63A] | < 1e-05 | < 1e-05 | – | < 1e-05 | –
9 | AUAAAAUCGCCAGAACUACAGAAAUGUAGUCGACGAGGAGGAGGUUUAUCGAAUUUUCGGCGGAUGCGUCCAAA [G7U U31C C68G] | 0.000102 ± 3.2e-05 | – | – | – | –
10 | AUAAAAGAGCCAGACCUACAGAAAUGUAGUUGACGAGGAGGAGGUUUAUCGAAUUUUCGGCGGAUGCCUCCAAA [C8A A15C] | < 1e-05 | < 1e-05 | < 1e-05 | – | < 1e-05
11 | AUAAAAGAGCCAGAGCUACAGAAAUGUAGUUGACGAGGAGGAGGUUUAUCGAAUUUUCGGCGGAUGCCUCCAAA [C8A A15G] | < 1e-05 | < 1e-05 | < 1e-05 | < 1e-05 | < 1e-05
12 | AUAAAACCGCCAGAACUACAGAAAUGUAGUCGACGAGGAGGAGGUUUAUCGAAUUUUCGGCGGAUGCCUCCAAA [G7C U31C] | < 1e-05 | – | – | – | < 1e-05
13 | AUAAAAUCGCCAGAACUACAGAAAUGUAGUUGACGAGGAGGAGGUUUAUCGAAUUUUCUGCGGAUGCCUCCAAA [G7U G59U] | < 1e-05 | – | < 1e-05 | < 1e-05 | < 1e-05
14 | AUAAAAGAGCCAGAACUACAGAAAUGUAGUUGACGAGGAGGAGGUUUCUCGAAUUUUCUGCGGAUGCCUCCAAA [C8A A48C G59U] | < 1e-05 | – | – | < 1e-05 | –
15 | AUAAAAGAGCCAGAACUACAGAAAUGUAGUUGACGAGGCGGAGGUUUAUCGAAUUUUCGGCGGAUGCCUCCAAA [C8A A39C] | < 1e-05 | < 1e-05 | – | < 1e-05 | < 1e-05
16 | AUAAAAGAGACAGAACUACAGAAAUGUAGUUGACGAGGAGGAGUUAUAUCGAAUUUUCGGCGGAUGACUCCAAA [C8A C10A G44U U46A C67A] | < 1e-05 | – | < 1e-05 | – | –
17 | AUAAAAUCGCCAGAACUACAGAAAUGUAGUUGACGAGAAGGAGGUUUGUCGAAUUUUCGCCGGAUGCCUCCAAA [G7U G38A A48G G60C] | < 1e-05 | – | – | < 1e-05 | –
18 | AUAAAAUCGCCAGAACUACAGAAAUGUAGUUGACUAGGUGGAGGUUUAUCGAAUUUUCGGCGGAUGCCUCCAAA [G7U G35U A39U] | < 1e-05 | – | – | – | –
19 | AUAAAAUUGCCAGAACUACAGAAAUGUAGUUGACGAGGAGGAGGUUUAUCGAAUUUUCGGCGGAUGUCUCCAAA [G7U C8U C67U] | < 1e-05 | – | – | – | –
20 | AUAAAAGAGCCAGAACUACAGAAAUGUAGUUGACGGGGAGGAGGUUUAUCGAAUUUUCGGCGGAUGCCUCCAAA [C8A A36G] | < 1e-05 | < 1e-05 | < 1e-05 | < 1e-05 | < 1e-05
21 | AUAAAAGAGCCAGAACUACAGAAAUGUAGUUGACGCGGAGGAGGUUUAUCGAAUUUUCGGCGGAUGCCUCCAAA [C8A A36C] | < 1e-05 | – | < 1e-05 | < 1e-05 | < 1e-05
22 | AUAAAAGAGCCAGGACUACAGAAAUGUAGUUGACGAGGAGGAGGUUUAUCGAAUUUCCGGCGGAUGCCUCCAAA [C8A A14G U57C] | < 1e-05 | < 1e-05 | < 1e-05 | – | –
23 | AUAAAAUCGCCAGAACUACAGAAAUGUAGUUGACGAGGAGGAGGUUUAUCGAGUUUUCGGCGGAUGCCGCCAAA [G7U A53G U69G] | 8.14e-05 ± 2.1e-05 | 0.000822 ± 0.00023 | 9.39e-05 ± 3.9e-05 | 9.89e-05 ± 2e-05 | –
24 | AUAAAAGAGCCAGAACUACAGAAAUGUAGUUGACGAGGAGGAGGUUUAUUCACUUUUCGGCGGAAGCCUCCAAA [C8A C50U G51C A53C U65A] | < 1e-05 | < 1e-05 | – | – | –
25 | AUAAAACCGCCAGAACUACAGAAAUGUAGUUGACGAGGAGGAGGUUCAUCGAAUUUUCGGCGGUUGCCUCCAAA [G7C U47C A64U] | < 1e-05 | – | – | < 1e-05 | –
26 | AUAAAACCGCCAGAACUACAGAAAUGUAGUUGACGAGGAGGAGGUGUAUCGAAUUUUCGGCGGAUGGCUCCAAA [G7C U46G C67G] | < 1e-05 | – | – | < 1e-05 | –
